{"source": "paper doi:10.1101/2021.11.27.470173", "test_in_all_cases": "SEC-MALS", "key": {"[1]": {"target": "cyanide dihydratase CynD from Bacillus safensis PER-URP-08 (Bacillus safensis PER-URP-08) (UniProt P0DXY3)"}, "[2]": {"target": "cyanide dihydratase CynD from Bacillus safensis PER-URP-08 (Bacillus safensis PER-URP-08) (UniProt P0DXY3)", "remark": "listed apart in the source"}, "[3]": {"target": "cyanide dihydratase CynD from Bacillus safensis PER-URP-08 (Bacillus safensis PER-URP-08) (UniProt P0DXY3)", "remark": "listed apart in the source"}}, "note": "Where two headings read alike, the source gives them in different places."}
{"substance": "cyanide dihydratase CynD from Bacillus safensis PER-URP-08 (from UniProt P0DXY3 1-330) (enzyme)", "values": [{"measurement": "stoichiometry N", "setting": "[1]", "value": "3 to 5", "unit": "mer"}, {"measurement": "stoichiometry N", "setting": "[2]", "value": "24 to 48", "unit": "mer"}, {"measurement": "stoichiometry N", "setting": "[3]", "value": "4 to 6", "unit": "mer"}]}
